In patent US20060053496A1 (UNIVERSITY OF NORTH CAROLINA AT CHAPEL HILL, published 2006):

Molecular target: T1, FLAG-tagged Monarch-1 (human, UniProt P59046 1-1061)
T1 construct: Expressed in transfected 293T cells and immunoprecipitated from lysate with anti-FLAG M2-agarose; also called FLAG-Monarch-1; Caterpiller 19.3; not shown: N-terminal FLAG tag added by PCR
T1 sequence: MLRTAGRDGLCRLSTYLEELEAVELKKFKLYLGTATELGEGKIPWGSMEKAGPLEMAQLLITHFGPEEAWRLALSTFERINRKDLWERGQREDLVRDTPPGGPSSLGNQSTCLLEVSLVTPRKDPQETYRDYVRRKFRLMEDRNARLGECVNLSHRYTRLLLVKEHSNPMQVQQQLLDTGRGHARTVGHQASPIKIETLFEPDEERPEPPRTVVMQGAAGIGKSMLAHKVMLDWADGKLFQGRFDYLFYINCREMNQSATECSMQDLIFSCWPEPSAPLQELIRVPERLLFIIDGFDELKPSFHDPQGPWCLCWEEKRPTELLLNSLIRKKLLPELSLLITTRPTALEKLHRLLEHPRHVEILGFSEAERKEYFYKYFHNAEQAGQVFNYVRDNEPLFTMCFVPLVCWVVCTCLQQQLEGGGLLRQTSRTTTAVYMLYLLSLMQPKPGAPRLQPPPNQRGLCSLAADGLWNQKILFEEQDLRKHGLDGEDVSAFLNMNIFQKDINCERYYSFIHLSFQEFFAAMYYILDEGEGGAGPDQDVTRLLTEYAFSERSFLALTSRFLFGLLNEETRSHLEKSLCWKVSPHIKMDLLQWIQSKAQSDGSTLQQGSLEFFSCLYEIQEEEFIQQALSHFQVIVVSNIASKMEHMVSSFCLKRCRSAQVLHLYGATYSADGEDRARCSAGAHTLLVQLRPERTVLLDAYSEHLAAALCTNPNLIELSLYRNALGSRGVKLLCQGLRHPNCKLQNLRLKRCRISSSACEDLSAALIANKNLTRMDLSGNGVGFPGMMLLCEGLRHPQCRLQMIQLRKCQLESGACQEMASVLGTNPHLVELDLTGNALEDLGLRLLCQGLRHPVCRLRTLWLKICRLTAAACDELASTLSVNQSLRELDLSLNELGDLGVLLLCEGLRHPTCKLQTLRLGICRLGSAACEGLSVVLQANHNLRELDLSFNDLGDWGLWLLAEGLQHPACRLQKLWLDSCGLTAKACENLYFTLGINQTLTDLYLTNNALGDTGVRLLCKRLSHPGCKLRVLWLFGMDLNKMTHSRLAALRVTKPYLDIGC
Test: co-immunoprecipitation from transfected 293T cells (anti-FLAG M2-agarose IP, anti-HA western blot)
Protocol: Transfections and Immunoprecipitations. 2.5 million 293T cells were seeded in 10-cm cell culture plates. Eighteen to twenty-four hours later, 3 μg of each of the indicated plasmids was transfected using FUGENE6™ (Roche, Indianapolis, Ind.) at a 3:1 FUGENE6™ to DNA ratio and the cells were incubated an additional 18 to 24 hours. Cells were lysed in 0.5% NP-40, 150 mM NaCl, 50 mM Tris pH 8.0, 160 mM EDTA, 50 mM NaF, 10 mM sodium phosphate supplemented with protease inhibitor cocktail (Roche, Indianapolis, Ind.). Nuclei were removed and the resulting supernatant was pre-cleared with mouse IgG-conjugated agarose (Sigma, St. Louis) for 1 hour. FLAG®-tagged proteins were subsequently immunoprecipitated overnight with 35 μl M2-agarose equilibrated in lysis buffer. Beads were washed four times in lysis buffer and proteins eluted in sample buffer (20% Glycerol, 4% SDS, 130 mM Tris pH 6.8, 20 mM DTT) for western blot analysis.
Monarch-1 Associates with TRAF6 but not MyD88 or IRAK1. In addition to the proteins identified by MALDI-MS, 293T cells were transfected with Monarch-1 cDNA and one of the following: HA-MyD88, HA-TRAF6, or HA-IRAK1. Twenty-four hours later the cells were lysed and Monarch-1-containing protein complexes were immunoprecipitated with anti-FLAG® M2-agarose beads overnight. […]

B1: HA-IRAK1 (enzyme, human, UniProt P51617 1-712, looked up)
chain: MAGGPGPGEPAAPGAQHFLYEVPPWVMCRFYKVMDALEPADWCQFAALIVRDQTELRLCERSGQRTASVLWPWINRNARVADLVHILTHLQLLRARDIITAWHPPAPLPSPGTTAPRPSSIPAPAEAEAWSPRKLPSSASTFLSPAFPGSQTHSGPELGLVPSPASLWPPPPSPAPSSTKPGPESSVSLLQGARPFPFCWPLCEISRGTHNFSEELKIGEGGFGCVYRAVMRNTVYAVKRLKENADLEWTAVKQSFLTEVEQLSRFRHPNIVDFAGYCAQNGFYCLVYGFLPNGSLEDRLHCQTQACPPLSWPQRLDILLGTARAIQFLHQDSPSLIHGDIKSSNVLLDERLTPKLGDFGLARFSRFAGSSPSQSSMVARTQTVRGTLAYLPEEYIKTGRLAVDTDTFSFGVVVLETLAGQRAVKTHGARTKYLKDLVEEEAEEAGVALRSTQSTLQAGLAADAWAAPIAMQIYKKHLDPRPGPCPPELGLGLGQLACCCLHRRAKRRPPMTQVYERLEKLQAVVAGVPGHSEAASCIPPSPQENSYVSSTGRAHSGAAPWQPLAAPSGASAQAAEQLQRGPNQPVESDESLGGLSAALRSWHLTPSCPLDPAPLREAGCPQGDTAGESSWGSGPGSRPTAVEGLALGSSASSSSEPPQIIINPARQKMVQKLALYEDGALDSLQLLSSSSLPGLGLEQDRQGPEESDEFQS
notes: not shown: double 5' (N-terminal) HA tag
B1: no binding.
